Where a chain is given by its changes, count along the chain named.
T1: HCV bt-134-154 (Peptide 1, HCVc 134-154) (Hepatitis C virus (numbering per HCV-1), biotin (carboxy-terminal per; N-terminal per))
T1 peptide: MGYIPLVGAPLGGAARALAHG

T2: HCV bt-141-161 (Peptide 2, HCVc 141-161) (Hepatitis C virus (numbering per HCV-1), biotin (carboxy-terminal per; N-terminal per))
T2 peptide: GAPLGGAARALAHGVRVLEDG

T3: HCV bt-151-171 (Peptide 3, HCVc 151-171) (Hepatitis C virus (numbering per HCV-1), biotin (carboxy-terminal per; N-terminal per))
T3 peptide: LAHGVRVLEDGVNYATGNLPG

B1: HCV 208B-353 (antibody, V domains shown)
VH: EVQLVESGGDLVKPGGSLKLSCAASGFTFNHYGMSWVRQPPDKRLEWVATISSGGGYTYYPDSVKGRFTISRDNAKDTLSLQMSSLRSGDTAVYYCASLYGSLFAYWGQGTLVTVSA
VL: DIVMTQSQKFMSTTVGDRVRVTCKASQNVGTAVAWYQQKPGQSPKLLIYSASNRYTGVPDRFTGSGSGTDFTLTITNMQSEDLADYFCQQYSTYPLTFGSGAKLEIKR
B2: HCV 208A-134 (antibody, V domains shown)
VH: QGQMQQSGAELAKPGASVKLSCKTSGFTFSSSYISWLKQKPGQSLEWIAWIYAGTGNTNYNQKFTDKAQLTVDTSSSTAYMQLSSLTTEDSAIYYCAISGTGFTYWGQGTLVTVSA
VL: EVLMTQSPLSLPVSLGDQASISCRSSQSLEHTNGNTYLEWFLQRPGQPPKLLIYKVSSRFSGVPDRFSGSGSGTDFTLKISRVEAEDLGVYYCFQGSHVPFTFGSGTKLAIKR
B3: HCV 208B-327 (antibody, V domains shown)
VH: EVQLVESGGGLVKPGGSLKLSCAASGFTFSDSYMYWVRQTPDQRLEWVATISDGGSYTFYPDSVKGRFTISRDNAQNNLYLQMSSLKSEDTAMYYCASPHAGYFGWFAYWGRGTLVTVSA
VL: DIVMTQAAFSNPVTPGTSVSISCRSSKSLLHSNGITYLYWYLQKPGQSPQLLIYQMSKIASGVPDRFRSSGSGTDFTLRISRVEAADVGVYYCAQNLELPWTFGGGTKLEIKR
B4: HCV 208B-174 (antibody, V domains shown)
VH: EVKLEESGGGLVQPGGSMKLSCVASGFSFSSYWMSWVRQSPEKGLDWVAEIRLRSDNYATHYAESVKGRFTISRDDSISRLYLQMNTLRAEDTGIYYCTWMTYWGQGTLVTVSA
VL: QNVLTQSPAIMSASPGEKVTMSCSASSSVTYMFWYQLKPESSPRLLIYDTSNLASGVPVRFSGSGSGTSYSLTISRMEAEDAATYYCQEWSSYPLTFGAGTKLDLKR
B5: HCV 208A-874 (antibody, V domains shown)
VH: QVQLQQPGAELVKPGASVKLSCKASGYTLSSYWMHWVKQRPGQGLEWIGEIHPSDSYTSYNQKFKDKATLTVDKSSSTAYMQLSSLTSEDSAVYYCARGGYYRYDEFAYWGQGTLVTVSA
VL: DIVMTQSHKFMSTSIGDRVSITCKASQNVSPAVAWYQQKPGQSPKLLIYSASSRYTGVPDRFTGSGSGTAFTFTISSVQAEDLAVYFCQQHFSTPWTFGGGTMLEIKR
B6: HCV 208A-638 (antibody, V domains shown)
VH: QGQLQQPGAEFVKPGASLKLSCRASGYTFTSYWIHWVKQRPGQGLEWIGEVDPSDSYINQNEKFRGKATLTVDKSSSTAYMQLGSLTSEDSAVYYCARHYYGVLDSWGQGTALTVSS
VL: QIVLTQSPTIMSASLGERVTMTCTASSSVSSSYLHWFQQKPGSSPKLWIYSTSNLASGVPPRFSGSGSGTSYSLSISSVEAEDVATYYCLQFHRSPWTFGGGAKLEIKR
B7: HCV 208B-612 (antibody, V domains shown)
VH: EVQLQQSGPELVKPGASVKMSCKASGYRFTSYVMHWVRQKPGQGLEWIGYIDPHNDDTKYSEKFRGKATLTSDKSSTTAYMELSSLTSEDSAVYYCVRYSYDRDYSPMDYWGQGTSVTVSS
VL: QIVLTQSPTLMSASPGEKVTMTCSASSTVTYIYWYQQKPGSSPRLWMYDTFNLVSGVPARFSGSRSGTSYFLTISSMEGEDAATYYCQQYSDSPYTFGGGTKLEIKR
B8: HCV 208B-515 (antibody, V domains shown)
VH: QVQLQQPGAELVKPGASLKLSCRASGYTFTSYWIHWVKQRPGQGLEWIGEIDPSDSYTNYNQKFKGKATLTVDKSSRAAYMQLSSLTSEDSAVYYCARHYYGVFDSWGQGTKLTVSS
VL: QIVFTQYPAIMSASLGERVTMTCTASSSVTSSYLHWFQQKPGSSPKLWIYSTSNPGSGVPARFSGRGSGTSYSLSISSMEAEDAATYYCLQFHRSPWTFGGGTKLEIRR
B9: HCV 208B-517 (antibody, V domains shown)
VH: QVQLKQSGPGLVQPSQSLSITCTVSGFSLITHGVHWVRQSPGKGLEWLGVIWSGGSTDYNAAFISRLSISKDTSKSQVFLKMSSLQADDTAIYYCARNGGATAFDYWGQGTTLTVSS
VL: DIVMTQSPATLSVTPGDRVSLSCRASQSISDYLHWYQQKSHESPRLLIKYASQSISGIPSRFRGSGSGSHFTLSINSVEPEDVGVYYCQNGHSFPWTFGGGTKLEIKR
B10: HCV 208B-178 (antibody, V domains shown)
VH: DVKLVESGGGLVKLGGSLKLSCAASGFTFSSYYMSWVRQTPEKRLELVAAINSNGGSTYYPDTVKGRFTISRDNAKNTLYLQMSSLKSEDTALYYCARHGGLGRRDWYFDVWGAGTTVTVSS
VL: DIVLTQSPASLAVSLGQRATISCRASESVDNYGISFMHWYQQKPGQPPKLLIYRASNLESGIPARFSGSGSRTDFTLTINPVETDDVATYYCQQSNKDPFTFGSGAKLEIKR
B11: HCV 208A-830 (antibody, V domains shown)
VH: EVRLQQPGPEVEKPGASVKISCKTSGYTFTEYAIHWVKQSHGESLEWIGGINPSNGDPIYNQIFKDKATLTVDRSSNTAYMGLRSLTVGDSGVYFCVRRQLDYFDFWGQGASLTVSS
VL: DIVLTQSPASLAVSLGQRATISCRSSQSVSTSRYSYLHWYQQKPGQPPKLLIKYASNLESGVPARFSGSGSGTDFTLNIHPVGEEDPATYYCQHSWEFPFTFGSGTKLEIKR
B12: HCV 208B-189 (antibody, V domains shown)
VH: QVHLQQSGAELAKPGASVQMSCKASGYTFTANKMHWARQRPRQGLEWIGYIDPASGYTEYNQKIKDRATLTADKSSSTAYMQLSSLTSEDSAVYYCTNFAYWGQGTLVTVST
VL: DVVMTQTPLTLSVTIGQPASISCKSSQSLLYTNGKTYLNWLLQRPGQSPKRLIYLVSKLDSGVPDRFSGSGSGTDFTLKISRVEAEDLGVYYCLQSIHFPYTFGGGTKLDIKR
B13: HCV 208B-589 (antibody, V domains shown)
VH: QVQLQQSGAGLAKPGASVKMSCKASGYTFTANKMHWAKQRPGQGLEWIGYIDPSSGYTEYNHKIQDKATLTADTSSSTAYMQLSSLTFEDSAVYYCTNFAYWGQGTLVTVSA
VL: DIVMTQTPLTLSVTIGQPASISCKSSQSLLFTNGKTYLNWFLQRPGQSPKRLIYLLSKLDSGVPDRFSGSGSGTDFTLKISRVEAEDLGVYYCLQSTYFPLTFGAGTKLELKR
B14: HCV 208B-395 (antibody, V domains shown)
VH: B13 VH with A37T, E59Q
VL: DIVLTQSPATLSVTPGDRVSLSCRASQRIYNYLHWYQQKSHESPRLLIKYASQSISGIPSRFSGSGSGTDFILTINSVETEDFGMYFCQQSNSWPLTFGAGTKLELRR
B15: HCV 208B-547 (antibody, V domains shown)
VH: B13 VH with G10E, A31S, H62Q, Q65K, T74K, F88S
VL: EVVLTQSPAITAASLGQKVTITCRASSSVSYMHWYRQKSGTSPQPWIYEISTLASGVPTRFRASGSGTSYSLTISSMEAEDAAIYYCQQWNYPLTFGAGTKLELKR
B16: HCV 208A-877 (antibody, V domains shown)
VH: QLQQSGPELVKPGASVKISCKTSGYTFTENAMHWVKQSRGKSLEWIGGVNPNNGDTVYTQKFKGKATLTVAKSSSTAYMELRTMTCEESTVYYCASREPDFFDYWGQGSSVTVSS
VL: QIVLTQSPAIMSVSPGEKVSMTCSASSSVTYMHWYQQKSGTSPKRWIYDTSELASGVPARFSGSGSGTTYSLTISSMEAEDAATYYCQQWSNKPLTFGAGTKLELKR
B17: HCV 208B-471 (antibody, V domains shown)
VH: QGQLQQSGPVLVKPGASEILYCKTSGFTFSSTYISWLKQKPGQSLEWIAWIYAGTGATNYNQKFTGKAQLTVDASSNTAYMHFSGLTPEDSAIYYCAISGAGVYWGQGTLVTVSA
VL: DVVMTQTPLSLPVSLGDQASISCRSSQSLLHSNGNTYLEWYLQKPGQSPNLLIYNVSNRFSGVPDRFSGSGSGTDFALKISRVGAEDLGVYYCFQGSHVPLTFGAGTKLELKR
B18: HCV 208B-1024 (antibody, V domains shown)
VH: EVQLVESGGDLVKPGGSLKLSCAASGFTFSNYGMSWVRQTPDKRLEWVATISSGGSYSYYPDSVKGRFTISRDNAKNILYLQMSSLKSEDTAMYYCASLYYGYGDYWGQGTAFTVSS
VL: DVLMTQTPLSLPVSLGDQASISCRSSQSIVHSNGNTYLEWYLQKLGQSPKLLIYRVSNRFSGVPDRFSGSGSGTDFTLKISRVEAEDLGVYYCFQGSHVPWTFGGGTKLEIKR

Assays:
Experiment in all cases: EIA, captured mAb + biotin peptide
[1] = target: T1, HCV bt-134-154 (Peptide 1, HCVc 134-154)
[2] = target: T2, HCV bt-141-161 (Peptide 2, HCVc 141-161)
[3] = target: T3, HCV bt-151-171 (Peptide 3, HCVc 151-171)

Binder	Reactivity (OD 492 nm) [1] [OD units]	Reactivity (OD 492 nm) [2] [OD units]	Reactivity (OD 492 nm) [3] [OD units]
B1	0.07	2.47	0.07
B2	2.06	0.08	0.06
B3	0.07	0.05	0.49
B4	0.08	1.26	0.07
B5	0.05	0.73	0.06
B6	0.07	2.96	0.09
B7	3.05	3.04	0.15
B8	0.51	0.13	0.06
B9	0.1	0.41	0.7
B10	0.1	0.07	1.69
B11	0.07	2.88	0.08
B12	0.55	0.15	3.95
B13	0.27	0.1	2.85
B14	0.54	0.13	3.69
B15	0.12	0.08	2.9
B16	0.06	1.21	0.05
B17	1.62	0.11	0.08
B18	0.08	0.75	0.15
